# According to the supplement of paper PMC7877785:
# ± gives the uncertainty stated by the source.
# Assay: self-splicing fitness, log relative to wild type (ln ratio); higher = more splicing; Tetrahymena group I intron in knt gene, E. coli kanamycin selection, DiMSum; sequences stand for … in CUCUCU…GGAGGGAAAAGUUAUCAGGCAUGCACCUGGUAGCUAGUCUUUAAACCAAUAGAUUGCAUCGGUUUAAAAGGCAAGACCGUCAAAUUGCGGGAAAGGGGUCAACAGCCGUUCAGUACCAAGUCUCAGGGGAAACUUUGAGAUGGCCUUGCAAAGGGUAUGGUAAUAAGCUGACGGACAUGGUCCUAACCACGCAGCCAAGUCCUAAGUCAACAGAUCUUCUGUUGAUAUGGAUGCAGUUCACAGACUAAAUGUCGGUCGGGGAAGAUGUAUUCUUCUCAUAAGAUAUAGUCGGACCUCUCCUUAAUGGGAGCUAGCGGAUGAAGUGAUGCAACACUGGAGCCGCUGGGAACUAAUUUGUAUGCGAAAGUAUAUUGAUUAGUUUUGGAGUACUCGUGGUCG
# Procedure, shortened: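 Colonies from six replicate transformations of E. coli BL21(DE3) were pooled and amplicon-sequenced on an Illumina HiSeq 2500. The library placed an intron with all eight P1ex-region nucleotides randomised inside the knt kanamycin-resistance gene on pET-22b(+), and cells grew overnight at 37°C or 30°C on LB agar with or without 25 μg/mL kanamycin (plus 100 μg/mL carbenicillin, 50 μM IPTG, 0.2% rhamnose). Fitness is the DiMSum error-weighted combination of wild-type-normalised replicate fold changes, kanamycin versus none.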
Sequence,self-splicing fitness (ln) (30 °C),self-splicing fitness (ln) (37 °C)
GGGCAGCAAUAUUACGCUGA,-1.25 ± 0.12,-0.998 ± 0.15
AGGGAGCAAUAUUACGGCUC,-2.18 ± 0.24,
AAAAAGCAAUAUUACGCCAG,-2.24 ± 0.14,-2.24 ± 0.23
UUUAAGCAAUAUUACGCCUU,-0.228 ± 0.34,-1.35 ± 0.36
UAUGAGCAAUAUUACGACCG,-1.61 ± 0.4,-1.53 ± 0.34
UGGUAGCAAUAUUACGCCUC,-1.82 ± 0.39,-2.03 ± 0.39
GUGGAGCAAUAUUACGUAGG,-3.17 ± 0.29,-0.82 ± 0.24
GCGGAGCAAUAUUACGGAUU,-3.69 ± 0.27,-1.28 ± 0.2
AUUAAGCAAUAUUACGCGAG,-1.27 ± 0.1,-0.38 ± 0.097
CACCAGCAAUAUUACGACAU,-3.726 ± 0.018,-2.66 ± 0.035
GACGAGCAAUAUUACGGGGG,-3.65 ± 0.22,-2.98 ± 0.3
AUCGAGCAAUAUUACGUCAA,-2.72 ± 0.25,-1.3 ± 0.29
CCCGAGCAAUAUUACGGUGU,-3.28 ± 0.1,-1.67 ± 0.094
CUAAAGCAAUAUUACGGUUC,-4.09 ± 0.2,-2.68 ± 0.18
UUCAAGCAAUAUUACGACGA,-0.243 ± 0.084,0.213 ± 0.084
GUCAAGCAAUAUUACGCGCG,-2 ± 0.13,-1.32 ± 0.15
CAAAAGCAAUAUUACGGUAG,-0.372 ± 0.058,-0.148 ± 0.074
CUCGAGCAAUAUUACGCACU,-2.96 ± 0.3,
GACAAGCAAUAUUACGAUCA,0.0763 ± 0.12,-0.0166 ± 0.15
UAUAAGCAAUAUUACGAGCG,-0.0858 ± 0.098,-0.062 ± 0.1

Sequence,self-splicing fitness (ln) (30 °C),self-splicing fitness (ln) (37 °C)
CAUCAGCAAUAUUACGUCGU,-1.93 ± 0.097,-1.19 ± 0.11
AUGAAGCAAUAUUACGACAG,0.129 ± 0.068,0.414 ± 0.095
GUAAAGCAAUAUUACGAGGA,-1.81 ± 0.1,-1.52 ± 0.15
CAUGAGCAAUAUUACGCAGA,-4.53 ± 0.32,-1.69 ± 0.15
AACCAGCAAUAUUACGCAAG,-2.54 ± 0.1,-1 ± 0.1
UUUAAGCAAUAUUACGAUAG,-0.412 ± 0.096,-0.23 ± 0.097
ACUUAGCAAUAUUACGCUCU,-0.715 ± 0.13,-0.397 ± 0.14
UCUAAGCAAUAUUACGUGUA,-1.6 ± 0.12,-0.704 ± 0.1
AUCAAGCAAUAUUACGGCCA,-0.51 ± 0.074,-0.264 ± 0.079
AAACAGCAAUAUUACGAGUA,-1.79 ± 0.1,-1.68 ± 0.11
UUCAAGCAAUAUUACGUGGU,-4.01 ± 0.2,-2.7 ± 0.17
UAGGAGCAAUAUUACGGCGC,-1.76 ± 0.36,-2.54 ± 0.41
AUUAAGCAAUAUUACGCACG,-1.37 ± 0.16,-0.648 ± 0.17
AGGCAGCAAUAUUACGUCAG,-1.92 ± 0.12,-0.461 ± 0.12
UCUAAGCAAUAUUACGCAUU,-2.92 ± 0.21,-2.83 ± 0.28
CCGUAGCAAUAUUACGAUCA,-2.86 ± 0.32,-2.34 ± 0.35
GGGGAGCAAUAUUACGCGUG,-1.75 ± 0.13,-1.96 ± 0.17
CUCUAGCAAUAUUACGCUGC,-3.58 ± 0.44,
GUCAAGCAAUAUUACGAUUC,-1.76 ± 0.17,0.0525 ± 0.15
